B1: Pistol ribozyme (parent)
chain: GGGUCGUUGUUCCAUAAUCGCGUGGAUAUGGCACGCAAGUUUCUACCGGGCACCGUAAAUGUCCGACUGGAGCCGUUCGGGCGGCUAUAAACAGACCUCAGGCCCGAAGCGUGGCGGCACCUGCCGCCGGUGGUAAAAAAGAUCGGAAGAGCACACGUCU

This data set covers variants of B1. Description: aptazyme ON/OFF ratio, guanine; higher = stronger switching; co-transcriptional cleavage with and without guanine.
Turning to GGGUCGAGUACACAUAAUCGCGUGGAUAUGGCACGCAAGUUUCUACCGGGCACCGUAAAUGUCCGACUGGAGCCGUUCGGGCGGCUAUAAACAGACCUCAGGCCCGAAGCGUGGCGGCACCUGCCGCCGGUGGUAAAAAAGAUCGGAAGAGCACACGUCU [U7A U8G G9U U10A U11C C12A], the “aptazyme ON/OFF ratio” value is 1.39.
Next, GGGUCGACUGGGCAUAAUCGCGUGGAUAUGGCACGCAAGUUUCUACCGGGCACCGUAAAUGUCCGACUGGAGCCGUUCGGGCGGCUAUAAACAGACCUCAGGCCCGAAGCGUGGCGGCACCUGCCGCCGGUGGUAAAAAAGAUCGGAAGAGCACACGUCU [U7A U8C G9U U10G U11G C12G]: 1.22; GGGUCGGACGGUAAUAAUCGCGUGGAUAUGGCACGCAAGUUUCUACCGGGCACCGUAAAUGUCCGACUGGAGCCGUUCGGGCGGCUAUAAACAGACCUCAGGCCCGAAGCGUGGCGGCACCUGCCGCCGGUGGUAAAAAAGAUCGGAAGAGCACACGUCU [U7G U8A G9C U10G U11G C12U C13A]: 1.07; GGGUCGAUGGAUAAUAAUCGCGUGGAUAUGGCACGCAAGUUUCUACCGGGCACCGUAAAUGUCCGACUGGAGCCGUUCGGGCGGCUAUAAACAGACCUCAGGCCCGAAGCGUGGCGGCACCUGCCGCCGGUGGUAAAAAAGAUCGGAAGAGCACACGUCU [U7A U10G U11A C12U C13A]: 1.29.
The figure for GGGUCGGGUGAAUAUAAUCGCGUGGAUAUGGCACGCAAGUUUCUACCGGGCACCGUAAAUGUCCGACUGGAGCCGUUCGGGCGGCUAUAAACAGACCUCAGGCCCGAAGCGUGGCGGCACCUGCCGCCGGUGGUAAAAAAGAUCGGAAGAGCACACGUCU [U7G U8G G9U U10G U11A C12A C13U] is 1.18; for GGGUCGGCUUCGAAUAAUCGCGUGGAUAUGGCACGCAAGUUUCUACCGGGCACCGUAAAUGUCCGACUGGAGCCGUUCGGGCGGCUAUAAACAGACCUCAGGCCCGAAGCGUGGCGGCACCUGCCGCCGGUGGUAAAAAAGAUCGGAAGAGCACACGUCU [U7G U8C G9U U11C C12G C13A] it is 1.3.
Regarding GGGUCGCGCAGAAAUAAUCGCGUGGAUAUGGCACGCAAGUUUCUACCGGGCACCGUAAAUGUCCGACUGGAGCCGUUCGGGCGGCUAUAAACAGACCUCAGGCCCGAAGCGUGGCGGCACCUGCCGCCGGUGGUAAAAAAGAUCGGAAGAGCACACGUCU [U7C U8G G9C U10A U11G C12A C13A], the “aptazyme ON/OFF ratio” value amounted to 1.08.
Turning to GGGUCGCGGCGUAAUAAUCGCGUGGAUAUGGCACGCAAGUUUCUACCGGGCACCGUAAAUGUCCGACUGGAGCCGUUCGGGCGGCUAUAAACAGACCUCAGGCCCGAAGCGUGGCGGCACCUGCCGCCGGUGGUAAAAAAGAUCGGAAGAGCACACGUCU [U7C U8G U10C U11G C12U C13A], the “aptazyme ON/OFF ratio” value worked out at 1.24.
In the case of GGGUCGACGUUCCAUAAUCGCGUGGAUAUGGCACGCAAGUUUCUACCGGGCACCGUAAAUGUCCGACUGGAGCCGUUCGGGCGGCUAUAAACAGACCUCAGGCCCGAAGCGUGGCGGCACCUGCCGCCGGUGGUAAAAAAGAUCGGAAGAGCACACGUCU [U7A U8C], the “aptazyme ON/OFF ratio” value worked out at 1.98.
The figure for GGGUCGCCAUAUAAUAAUCGCGUGGAUAUGGCACGCAAGUUUCUACCGGGCACCGUAAAUGUCCGACUGGAGCCGUUCGGGCGGCUAUAAACAGACCUCAGGCCCGAAGCGUGGCGGCACCUGCCGCCGGUGGUAAAAAAGAUCGGAAGAGCACACGUCU [U7C U8C G9A U11A C12U C13A] is 1.26.
The figure for GGGUCGUUGGGGUAUAAUCGCGUGGAUAUGGCACGCAAGUUUCUACCGGGCACCGUAAAUGUCCGACUGGAGCCGUUCGGGCGGCUAUAAACAGACCUCAGGCCCGAAGCGUGGCGGCACCUGCCGCCGGUGGUAAAAAAGAUCGGAAGAGCACACGUCU [U10G U11G C12G C13U] is 1.26.
For the variant GGGUCGGGUUCAUAUAAUCGCGUGGAUAUGGCACGCAAGUUUCUACCGGGCACCGUAAAUGUCCGACUGGAGCCGUUCGGGCGGCUAUAAACAGACCUCAGGCCCGAAGCGUGGCGGCACCUGCCGCCGGUGGUAAAAAAGAUCGGAAGAGCACACGUCU [U7G U8G G9U U11C C12A C13U], the “aptazyme ON/OFF ratio” value is 1.23.
Next, GGGUCGGAAAGCAAUAAUCGCGUGGAUAUGGCACGCAAGUUUCUACCGGGCACCGUAAAUGUCCGACUGGAGCCGUUCGGGCGGCUAUAAACAGACCUCAGGCCCGAAGCGUGGCGGCACCUGCCGCCGGUGGUAAAAAAGAUCGGAAGAGCACACGUCU [U7G U8A G9A U10A U11G C13A]: 1.14; GGGUCGGGCUUGCAUAAUCGCGUGGAUAUGGCACGCAAGUUUCUACCGGGCACCGUAAAUGUCCGACUGGAGCCGUUCGGGCGGCUAUAAACAGACCUCAGGCCCGAAGCGUGGCGGCACCUGCCGCCGGUGGUAAAAAAGAUCGGAAGAGCACACGUCU [U7G U8G G9C C12G]: 1.47; GGGUCGUAGGACAAUAAUCGCGUGGAUAUGGCACGCAAGUUUCUACCGGGCACCGUAAAUGUCCGACUGGAGCCGUUCGGGCGGCUAUAAACAGACCUCAGGCCCGAAGCGUGGCGGCACCUGCCGCCGGUGGUAAAAAAGAUCGGAAGAGCACACGUCU [U8A U10G U11A C13A]: 1.07.
Consider GGGUCGGAAGGUGAUAAUCGCGUGGAUAUGGCACGCAAGUUUCUACCGGGCACCGUAAAUGUCCGACUGGAGCCGUUCGGGCGGCUAUAAACAGACCUCAGGCCCGAAGCGUGGCGGCACCUGCCGCCGGUGGUAAAAAAGAUCGGAAGAGCACACGUCU [U7G U8A G9A U10G U11G C12U C13G], for which the “aptazyme ON/OFF ratio” value stood at 1.18.
The figure for GGGUCGAAGUCAAAUAAUCGCGUGGAUAUGGCACGCAAGUUUCUACCGGGCACCGUAAAUGUCCGACUGGAGCCGUUCGGGCGGCUAUAAACAGACCUCAGGCCCGAAGCGUGGCGGCACCUGCCGCCGGUGGUAAAAAAGAUCGGAAGAGCACACGUCU [U7A U8A U11C C12A C13A] is 1.02; for GGGUCGUUUCCCAAUAAUCGCGUGGAUAUGGCACGCAAGUUUCUACCGGGCACCGUAAAUGUCCGACUGGAGCCGUUCGGGCGGCUAUAAACAGACCUCAGGCCCGAAGCGUGGCGGCACCUGCCGCCGGUGGUAAAAAAGAUCGGAAGAGCACACGUCU [G9U U10C U11C C13A] it is 1.04.

These data come from the RNAGym collection of RNA variant scans (doi:10.1021/acssynbio.7b00057).
